Experimental findings from US20160145321A1 are described below.

Holding throughout (assay): cell-based or functional assay
Experiment [1] concerns the target G protein of RSV A/Long (virus, ATCC Cat. No. VR-26) (Respiratory syncytial virus A/Long) (UniProt P20895).
The target of experiment [2] is G protein of RSV B/18537 (virus, ATCC Cat. No. VR-1580) (Respiratory syncytial virus B/18537) (UniProt P20896).
Experiment [3] concerns the target G protein of RSV A/A2 (virus, ATCC Cat. No. VR-1540) (Respiratory syncytial virus A/A2) (UniProt P03423).

As to “CR9514 (an antibody based on 3D3, comprising the heavy and light chain variable region of 3D3)”, the figures for the Neutralization IC50 (plaque reduction assay, Vero cells) in experiment [1], in experiment [2] and in experiment [3] were 0.017 µg/mL, 0.033 µg/mL and 0.0407 µg/mL, respectively.
